“And” between values parts separate entries of the source, which are not always exact repeats. Equal entries are not always repeated.
How the values were obtained:
Format in all cases: biochemical, human
[1] = system: T1, CC(=O)N[C@@H](CCC(=O)O)C(=O)N[C@@H](C)C(=O)N[C@@H](CC(C)C)C(=O)N1CCC[C@H]1C(=O)N[C@@H](CCCCN)C(=O)N[C@@H](CCCCNC(=O)CCCCCCCCCCNC(=O)c1ccccc1N)C(=O)N[C@@H](Cc1ccc(O)c([N+](=O)[O-])c1)C(=O)NCC(=O)NCC(N)=O; test: Continuous fluorescence assay, substrate kinetics; conditions: other: Sirt6 500 nM; fluorescence spectrophotometer (footnote a); 37.0 °C
T1 construct: His-tag; made in house; host or cells: E. coli BL21 DE3
Experimental: The fluorescence measurements were performed on a Hitachi F-4500 fluorescence spectrophotometer (Tokyo, Japan) at λEx = 310 nm and λEm = 405 nm (slitEx = 5 nm, slitEm = 2.5 nm, PMT = 700 V for 3, 4 and 5 as well as slitEx = 10 nm, slitEm = 10 nm, PMT = 950 V for 4a). Each reaction mixture contained assay-buffer, 0.5 mM NAD^+ and various peptide concentrations (0.1–100 μM) and was preincubated for 5 minutes at 37 °C. The reaction was started by adding human sirtuin (0.1–0.5 μM) and observed for 5–10 minutes. Product formation could be monitored by increase of relative fluorescence. This signal was converted into product concentration via calibration lines. […] The reaction mixture was analyzed with HPLC, to control if the entire peptide substrate was turned to product. Additionally the mixture was diluted (0.1–25 μM) and measured with Hitachi F-4500 fluorescence spectrophotometer at the same conditions as described above.
The microtiter plate fluorescence measurements were performed on a Tecan Infinite M200 microplate reader (Maennedorf, Switzerland) at λEx = 320 nm and λEm = 408 nm (lag time 9 μs, integration time […], gain 160, 170 or 182). The reactions (total volume 100 μl) were measured in black low-binding 96-well microtiter plates (NUNC). […] The reaction mixture for the calibration lines was prepared as described for the single fluorescence measurements. […]

[2] = system: T2, CCCCCCCCCCCCCC(=O)NCCCC[C@H](NC(=O)[C@H](CCCCN)NC(=O)[C@@H]1CCCN1C(=O)[C@H](CC(C)C)NC(=O)[C@H](C)NC(=O)[C@H](CCC(=O)O)NC(C)=O)C(=O)N[C@@H](Cc1ccc(O)c([N+](=O)[O-])c1)C(=O)NCC(=O)NCC(N)=O; test: HPLC based activity assay; conditions: other: HPLC; Sirt6 0.5 µM; pH 7.8; 37.0 °C
T2 construct: His-tag; made in house; host or cells: E. coli BL21 DE3
Experimental: (§1) For the determination of kinetic constants for all sirtuin mediated reactions solutions containing 20 mM TRIS/HCl pH 7.8, 150 mM NaCl, 5 mM MgCl2 (assay-buffer), 500 μM NAD^+ and varying substrate concentrations (0.5–100 μM) were used. Deacylation was started by adding human sirtuin to reach a final concentration of 0.01–0.5 μM. Enzyme-catalyzed reaction was stopped using TFA (1% final concentration) after 1 min to 180 min of incubation at 37 °C depending on substrate reactivity. The cleavage rate of the different TNFα peptide derivatives was analyzed using analytical reversed phase HPLC. 40 to 80 μl of compounds or reaction solutions were injected and separated using a linear gradient from 5% to 95% solvent B within 6min. The product and substrate peaks were quantified using absorbance at 220 nm or 365 nm (absorption of 3-Nitrotyrosyl moiety). The peak areas were integrated and converted to initial velocity rates calculated from the ratio of product area to total peak area. Linear regression of conversions plotted against time yielded reaction rates in μM/min (relative conversion below 20% of substrate). Non-linear regression according to Michaelis-Menten of the reaction rates at different substrate concentrations yielded KM- and kcat-values using the program SigmaPlot 8 (Systat Software, San Jose, USA). All measurements were done in duplicates. […]

[3] = system: T1, CC(=O)N[C@@H](CCC(=O)O)C(=O)N[C@@H](C)C(=O)N[C@@H](CC(C)C)C(=O)N1CCC[C@H]1C(=O)N[C@@H](CCCCN)C(=O)N[C@@H](CCCCNC(=O)CCCCCCCCCCNC(=O)c1ccccc1N)C(=O)N[C@@H](Cc1ccc(O)c([N+](=O)[O-])c1)C(=O)NCC(=O)NCC(N)=O; test: HPLC based activity assay; conditions: other: HPLC; Sirt6 0.5 µM; pH 7.8; 37.0 °C
Experimental: as §1

[4] = system: T3, CCCCCCCCCCCCCC(=O)NCCCC[C@H](NC(=O)[C@H](CCCCN)NC(=O)[C@@H]1CCCN1C(=O)[C@H](CC(C)C)NC(=O)[C@H](C)NC(=O)[C@H](CCC(=O)O)NC(C)=O)C(=O)N[C@H](C(=O)NCC(=O)NCC(N)=O)[C@@H](C)O; test: HPLC based activity assay; conditions: other: HPLC; Sirt6 0.5 µM; pH 7.8; 37.0 °C
T3 construct: His-tag; made in house; host or cells: E. coli BL21 DE3
Experimental: as §1

Sirt6 (Homo sapiens) was tested, and the Km [1] was 23.5 ± 4.9 µM, the kcat/Km [1] was 39 M⁻¹ s⁻¹ and the Km [2] was 17 µM and 17.3 ± 2.6 µM. For the same substance, the kcat [2] was 4.9∙10^-3 ± 0.2∙10^-3 s^-1, the kcat/Km [2] was 2.81∙10^2 M^-1s^-1 and the Km [3] was 18.3 ± 4.4 µM. The kcat [3] was 8.3∙10^-4 ± 0.7∙10^-4 s^-1, the kcat/Km [3] was 45.00 M⁻¹ s⁻¹ and the Km [4] was 6 µM and 5.7 ± 1.3 µM. For the same substance, the kcat [4] was 4.7∙10^-3 ± 0.3∙10^-3 s^-1 and the kcat/Km [4] was 8.25∙10^2 M^-1s^-1.
